From publication PMC11393453, “Phosphorylation of tau at a single residue inhibits binding to the E3 ubiquitin ligase, CHIP” (Nature Communications, 2024)
Where two headings read alike, the source gives them in different places. Non-standard residues stand in square brackets, D forms with d. pS = N[C@@H](COP(=O)(O)O)C(=O)O

What was measured:
CHIP [1] = assay: NanoBiT live cell PPI assay (CHIP-tau split luciferase); type: cell-based; conditions: 30 nM okadaic acid; HEK293 cells
Procedure: Fig. 1 Phosphorylation of tauC3 inhibits interaction with CHIP. A Cartoon schematic of the live-cell NanoBiT assay for measuring CHIP-tau PPIs (NanoBiT PDB = 7SNX; CHIP PDB = 2C2L). B Results of NanoBiT assays for CHIP interactions with tau proteoforms following treatment with okadaic acid (30 nM, 18 h) or DMSO control. Luminescence normalized to CHIP binding to FL 0N4R tau treated with vehicle (dashed line). Error bars represent standard deviation (SD). Statistical significance was determined by two-way ANOVA with Bonferroni’s post hoc analysis (n = 3 biological replicates). CTRL = mock transfected control. C Tau proteoforms binding to immobilized CHIP measured by ELISA. Assay was performed in technical triplicate and normalized to maximum absorbance at 450 nm. D Dissociation constants derived from (C). Error bars represent SD. E In vitro ubiquitination of tau proteoforms by CHIP. Samples were collected at the denoted timepoints, quenched in SDS-PAGE loading buffer, and analyzed by western blot. Assay was performed once.
Fig. 2 Phosphorylation of tauC3 Ser416 is sufficient to inhibit interaction with CHIP. A Cartoon depicting constructs used for mapping of inhibitory phosphorylation sites by NanoBiT live cell assays. B NanoBiT live cell assay for CHIP interactions with truncated tau constructs following treatment with okadaic acid (30 nM, 18 h) or DMSO control. Data are shown as the difference between okadaic acid treated samples and vehicle control. Error bars represent SD. Statistical significance was determined by two-sided, one-way ANOVA with Tukey’s post hoc analysis (n = 3 biological replicates). C Apparent change in melting temperatures (Tmapp) for CHIP incubated with DMSO control or Hsp70 C-terminal peptides, as determined by DSF. Error bars represent SD. (n = 4 technical replicates). D DSF experiments performed and analyzed as in the previous panel, but with tauC3-derived peptides. (n = 4 technical replicates). E Competition FP experiment showing displacement of fluorescent tracer from the CHIP TPR domain by various 10-mer Hsp70 or tauC3-derived peptides. Experiments were performed in technical quadruplicate. F Inhibition constants derived from (E). Error bars represent SD. G Tau proteoforms binding to immobilized CHIP, as measured by ELISA. Assay was performed in technical triplicate and normalized to maximum absorbance at 450 nm. H Dissociation constants derived from (G). Error bars represent SD.
CHIP-substrate NanoBiT PPI assay was performed as previously described. Briefly, HEK293T cells were seeded in poly-D-lysine coated 96-well plates (Corning, flat bottom, white opaque) in Opti-MEM. Cells were transfected with 50 ng each SmBiT/LgBiT DNA using Lipofectamine 3000 (Thermo Fisher) in Opti-MEM according to the manufacturer’s instructions. Transfections were performed for 24 h, after which the media was replaced with fresh Opti-MEM containing DMSO or 30 nM okadaic acid. Cells were incubated for an additional […] at 37 °C/5% CO2 in a humidified incubator. Following this incubation, 12.5 uL 1X Nano-Glo live cell luciferase reagent (Promega) diluted in LCS buffer (Promega) was added to each well, and samples were incubated for 10 min at room temperature in the dark to allow luminescence levels to stabilize. […] Un-transfected cells were used to obtain background measurements which were subtracted from observed luminescence values.

CHIP [2] = assay: Differential scanning fluorimetry (DSF), CHIP WT with 10-mer peptides; type: binding, human; conditions: CHIP + peptide, sheet S3B
Procedure: DSF was performed with a 10 µL assay volume in 384-well Axygen quantitative PCR plates (Fisher Sci) on a qTower[3] real-time PCR thermal cycler (Analytik Jena). […] Temperature was increased 1 °C per cycle. Each well contained 5 µM CHIP, 5× Sypro Orange dye (Thermo Fisher), and varying concentrations of peptide in DSF assay buffer (25 mM HEPES pH 7.4, 50 mM KCl, 1 mM TCEP, 0.2% CHAPS, 1%DMSO). Fluorescence intensity data was truncated between 30–60 °C, plotted relative to temperature, and fit to a Boltzmann Sigmoid in GraphPad Prism 9.0. CHIP apparent melting temp (Tmapp) was calculated based on the following equation:1 Y=Bottom+((Top−Bottom)/(1+exp(Tm−T/Slope)))

[3] = target: CHIP (C-terminus of Hsc70 interacting protein; STUB1) (UniProt Q9UNE7); assay: competition FP against fluorescent tracer; conditions: reference: unmodified Hsp70 peptide; sites T636
[4] = target: CHIP (C-terminus of Hsc70 interacting protein; STUB1) (UniProt Q9UNE7); assay: differential scanning fluorimetry of CHIP
[5] = target: GFP-tagged tauC3 S416E, doxycycline-inducible in HEK293 Flp-In T-REx cells; assay: co-IP; tau immunoprecipitated with anti-Tau-5 and Protein A/G agarose from lysates of HEK293 Flp-In T-REx GFP-tau cells (25 mM Tris-HCl pH 7.4, 150 mM NaCl, 1 mM EDTA, 1% NP-40); co-precipitated endogenous CHIP by western blot
[6] = target: CHIP (C-terminus of Hsc70 interacting protein; STUB1), recombinant human, full-length (human) (UniProt Q9UNE7)
[7] = target: CHIP (C-terminus of Hsc70 interacting protein; STUB1) (UniProt Q9UNE7); assay: tau IP (Tau-5), CHIP western blot; conditions: reference: GFP-tauC3 WT; sites S416
[8] = target: CHIP (C-terminus of Hsc70 interacting protein; STUB1), recombinant human, full-length (human) (UniProt Q9UNE7); remark: listed apart in the source
[9] = target: T1, CHIP (C-terminus of Hsc70 interacting protein; STUB1), recombinant human, full-length (human, UniProt Q9UNE7 1-303); assay: fluorescence polarisation; competition: CHIP 1.58 µM + fluorescent tracer 20 nM, peptide competitor in three-fold dilutions, 25 mM HEPES pH 7.4, 50 mM KCl, 0.01% Triton X-100, DMSO; Ki calculated from IC50; conditions: both partners purified
T1 construct: CHIP (STUB1), human, E3 ubiquitin ligase; Used in ELISA, DSF and FP; the FP legends speak of the CHIP TPR domain, the FP methods only of CHIP; also called WT CHIP; source: E. coli BL21DE3, purified (Ni-NTA, TEV cleavage, SEC); not shown: His6, N-terminal, cleaved
T1 sequence (looked up): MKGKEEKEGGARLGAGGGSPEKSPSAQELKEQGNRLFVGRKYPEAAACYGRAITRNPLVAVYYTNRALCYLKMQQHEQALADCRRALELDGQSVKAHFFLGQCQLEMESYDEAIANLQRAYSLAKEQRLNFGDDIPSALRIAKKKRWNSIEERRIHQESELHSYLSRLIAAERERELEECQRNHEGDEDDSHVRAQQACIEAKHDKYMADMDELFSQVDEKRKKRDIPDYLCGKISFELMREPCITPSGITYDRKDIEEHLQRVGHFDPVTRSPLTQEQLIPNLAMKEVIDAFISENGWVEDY

CHIP D134A = target: T2, CHIP D134A (human, UniProt Q9UNE7 1-303, D134A); assay: as above; conditions: both partners purified
T2 construct: CHIP (STUB1) with Asp134 mutated to alanine; also called D134A CHIP
T2 sequence (looked up): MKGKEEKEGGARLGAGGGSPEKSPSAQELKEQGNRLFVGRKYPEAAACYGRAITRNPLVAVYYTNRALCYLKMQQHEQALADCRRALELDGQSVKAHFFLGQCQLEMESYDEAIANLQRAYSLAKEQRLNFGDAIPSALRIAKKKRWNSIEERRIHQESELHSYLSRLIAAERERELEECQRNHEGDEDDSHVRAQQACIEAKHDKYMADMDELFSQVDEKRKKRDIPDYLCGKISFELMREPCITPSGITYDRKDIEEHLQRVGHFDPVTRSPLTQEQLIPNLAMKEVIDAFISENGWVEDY

CHIP F131A = target: T3, CHIP F131A (human, UniProt Q9UNE7 1-303, F131A); assay: differential scanning fluorimetry; 5 µM CHIP, 5x Sypro Orange, varying concentrations of peptide in 25 mM HEPES pH 7.4, 50 mM KCl, 1 mM TCEP, 0.2% CHAPS, 1% DMSO; apparent melting temperature (Tmapp) of CHIP; conditions: both partners purified
T3 construct: CHIP (STUB1) with Phe131 mutated to alanine
T3 sequence (looked up): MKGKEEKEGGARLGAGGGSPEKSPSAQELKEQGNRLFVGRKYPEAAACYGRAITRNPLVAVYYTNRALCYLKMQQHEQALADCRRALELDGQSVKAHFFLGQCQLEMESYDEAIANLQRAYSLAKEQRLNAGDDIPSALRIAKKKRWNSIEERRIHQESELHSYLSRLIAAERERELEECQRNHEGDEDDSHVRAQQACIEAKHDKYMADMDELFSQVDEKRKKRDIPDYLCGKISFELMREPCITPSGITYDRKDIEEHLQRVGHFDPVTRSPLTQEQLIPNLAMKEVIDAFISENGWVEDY

[10] = reference: unmodified tauC3 peptide, sites S416

Q: With `C=C1[C@@H](O)[C@@H]2O[C@]3(CC[C@H](/C=C/[C@@H](C)[C@@H]4CC(C)=C[C@@]5(O[C@H](C[C@@](C)(O)C(=O)O)CC[C@H]5O)O4)O3)CC[C@H]2O[C@@H]1[C@@H](O)C[C@H](C)[C@H]1O[C@@]2(CCCCO2)CC[C@H]1C` [okadaic acid, reference compound] as the molecule, how does the “effect on CHIP interaction with FL tau” value (CHIP [1]) read?
A: enhanced CHIP’s interaction with FL tau

Q: And the “effect on CHIP interaction with tauC3” value (CHIP [1])?
A: significantly lessened the interaction with tauC3

Q: For “ESTGSIDMVD [tauC3 S412E, 10-mer tauC3 phosphomimetic peptide]”, which “Tm(app) derived from DSF curves” value (CHIP [2]; replicate 1) is on record?
A: 50.23

Q: And the “Tm(app) derived from DSF curves” value (CHIP [2]; replicate 2)?
A: 50.09

Q: And the “Tm(app) derived from DSF curves” value (CHIP [2]; replicate 3)?
A: 49.65

Q: What about the “Tm(app) derived from DSF curves” value (CHIP [2]; replicate 4) of the same molecule?
A: 49.78

Q: “Hsp70 (HSPA1A) C-terminal 10mer (from UniProt P0DMV8) pT636 peptide” was tested. Which “binding against the reference” value [3] did it give?
A: weaker

Q: And the “binding against the reference” value ([4]; reference: unmodified Hsp70 peptide, sites T636)?
A: weaker

Q: Which results are given for “SETGSIDMVD [tauC3 S413E, 10-mer tauC3 phosphomimetic peptide]”?
A: Tm(app) derived from DSF curves (CHIP [2]; replicate 1): 50.06; Tm(app) derived from DSF curves (CHIP [2]; replicate 2): 50.15; Tm(app) derived from DSF curves (CHIP [2]; replicate 3): 49.96; Tm(app) derived from DSF curves (CHIP [2]; replicate 4): 49.5

Q: For “SSEGSIDMVD [tauC3 T414E, 10-mer tauC3 phosphomimetic peptide]”, which “Tm(app) derived from DSF curves” value (CHIP [2]; replicate 1) is on record?
A: 49.33

Q: What about the “Tm(app) derived from DSF curves” value (CHIP [2]; replicate 2) of the same molecule?
A: 49.12

Q: And the “Tm(app) derived from DSF curves” value (CHIP [2]; replicate 3)?
A: 49.22

Q: What about the “Tm(app) derived from DSF curves” value (CHIP [2]; replicate 4) of the same molecule?
A: 48.96

Q: “endogenous CHIP (from UniProt Q9UNE7 1-303) (enzyme)” was tested. Which relative amount of co-immunoprecipitated CHIP [5] did it give?
A: 0.55

Q: “p.tauC3, natively phosphorylated tauC3 from Sf9 insect cells (domain or fragment)” was tested. Which Kd [6] did it give?
A: 700 nM

Q: For “tau (MAPT/tau; tauC3, FL 0N4R tau) C-terminal 10-mer of tauC3, ends at D421 (from UniProt P10636-8) S416E peptide (Ac-…-OH)”, which “other: CHIP Tmapp” value [4, 10] is on record?
A: weaker; reference 48.81 ± 0.11

Q: “tau (MAPT/tau; tauC3, FL 0N4R tau) C-terminal 10-mer of tauC3, ends at D421 (from UniProt P10636-8) pS416 peptide” was tested. Which “binding against the reference” value [4, 10] did it give?
A: weaker

Q: Which other: relative amount of co-IP CHIP [7] does the source give for “tau (MAPT/tau; tauC3, FL 0N4R tau) tauC3, ends at D421 (from UniProt P10636-8) GFP-tauC3 S416E” here?
A: 0.55

Q: With “tauC3 S416E, recombinant protein with a single phosphomimetic mutation (domain or fragment)” as the molecule, how does the Kd [8] read?
A: 780 nM

Q: How did the Kd [6] turn out when “tauC3, unmodified recombinant (0N4R tau cleaved at D421) (domain or fragment)” was run?
A: 190 nM

Q: And the Kd [8]?
A: 90 nM

B1: tauC3 C-terminal 10-mer peptide Ac-SSTGSIDMVD-OH (peptide)
peptide: Ac-SSTGSIDMVD-OH
notes: C-terminus of tauC3 (tau ending at D421); numbers count on: the 2N4R-tau splice isoform; also called WT tauC3 peptide; WT tauC3; source: synthetic peptide
Q: Which results are given for B1?
A: Ki [9]: 150 nM; Ki (CHIP D134A): 5570 nM; binding result (CHIP F131A): binds

B2: tauC3 pS416 10-mer peptide (peptide)
peptide: Ac-SSTG[pS]IDMVD-OH
notes: C-terminal 10-mer of tauC3 with a bona fide phosphoserine at the S416 position; numbers count on: the 2N4R-tau splice isoform; also called phosphorylated tauC3 peptide; source: synthetic peptide (Genscript)
Q: For B2, which Ki [9] is on record?
A: 1010 nM

Q: What about the Ki (CHIP D134A) of the same molecule?
A: 1840 nM
